Substitutions are numbered along the chain they refer to. Where no end group is shown, it is not given here. The star is where a group is joined. Biotin = O=C1N[C@H]2[C@H](CS[C@H]2CCCCC(=O)*)N1
T1: Peptide B (human PAR-2), N-terminal biotinylated (Human)
T1 construct: also called Peptide B N-Term
T1 peptide: Biotin-GGGGSSLIGKVDGTSHVTG

T2: Peptide A (human PAR-2), N-terminal biotinylated (Human, N-terminal biotin via G4S linker)
T2 construct: also called Peptide A N-Term
T2 peptide: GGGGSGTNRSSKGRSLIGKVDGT

T3: Peptide B (human PAR-2), C-terminal biotinylated (Human, not fully specified)
T3 construct: also called Peptide B C-Term
T3 peptide: SLIGKVDGTSHVTGGGGGS-biotin

T4: Peptide A (human PAR-2), unbiotinylated (Human)
T4 construct: also called Peptide A No Biotin
T4 peptide: GTNRSSKGRSLIGKVDGT

B1: H4H583P (antibody, human IgG4, V domains shown)
VH: QVQLVESGGGVVQPGMSLRLSCTASGFTFRRYGMHWVRQAPGKGLEWVAVIWYDGSNKYYADSVKGRFTITRDNSKNTLYLQMNSLRAEDTAIYFCASEITIGDWFDPRGQGTLVTVSS
VL: AIQMTQSPSSLSASVGDRVTITCRASQGIRNDLGWFQQKPGKVPKLLIYAASTLHSGVPSRFSGSGFGTDFTLTISSLQPEDFATYYCLQDFNYPLTFGGGTKVEIK
notes: also called H1H583P variable regions
B2: H4H584P (antibody, human IgG4, V domains shown)
VH: QVQLVESGGGVVQPGRSLRLSCVASGFTFSRYGMHWVRQAPGKGLEWVVVISYDGINKYYADSVKGRFTISRDNSKNTVYLQMNSLRAEDTAVYYCAKGDFWSGYFDYWGQGTLVTVSS
VL: DIVMTQTPLSSPVTLGQPASISCRSSQSLVHSDGNTYLSWLHQRPGQPPRLLIYKISNRFSGVPDRFSGSGAGTDFTLQISRVEAEDVGIYYCMQATQFPTFGGGTKVEIK
notes: also called H1H584P variable regions
B3: H4H585P (antibody, human IgG4, V domains shown)
VH: B2 VH with V48L, V49I
VL: B2 VL with A96G
notes: also called H1H585P variable regions
B4: H4H581P (antibody, human IgG4, V domains shown)
VH: B2 VH with M34I, V49I
VL: B2 VL
notes: also called mAb H4H581P; H1H581P variable regions
B5: H4H579P (antibody, human IgG4, V domains shown)
VH: B2 VH with V48L, V49I, A92G
VL: B2 VL with A96G
notes: also called H1H579P variable regions
B6: H4H588N (antibody, human IgG4, V domains shown)
VH: EVQLLESGGGLVQPGGSLRLSCAASGFTFSSYAMTWVRQAPGKGLYWVSAISGGRGSAYYADSVKGRFTISRDNSKNTLYLQMNSLRAEDTAVYYCAKEGDSGYDLAYWGRGTLVTVSS
VL: DIQMTQSPSSLSASVGDRVTITCRARQGISNNLAWLQQKPGKAPKSLIYAASSLQSGIPSKFSGSGSGTYFTLTISSLQPEDFATYYCQQYKSSPLTFGGGTKVEIK
notes: also called H2M588N variable regions

What follows are binders tested against T5, Peptide F (monkey PAR-2), N-terminal biotinylated (Monkey (Macaca mulatta), N-terminal biotin via G4S linker) (assay: SPR, peptide immobilized).
T5 construct: also called Peptide F N-Term
T5 sequence (peptide, as listed by the source): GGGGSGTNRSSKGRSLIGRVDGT

| Binder | Kd | T1/2 |
| --- | --- | --- |
| B1 | 0.291 nM | 73 min |
| B2 | 0.565 nM | 40 min |
| B3 | 0.899 nM | 66 min |
| B4 | 0.272 nM | 78 min |
| B5 | 0.796 nM | 70 min |
| B6 | 1.81 nM | 94 min |

Target: T1, Peptide B (human PAR-2), N-terminal …
Assay: SPR, peptide immobilized

| Binder | binding result | Kd | T1/2 |
| --- | --- | --- | --- |
| B1 | no binding |  |  |
| B2 |  | 3.2 nM | 30 min |
| B3 |  | 5.41 nM | 63 min |
| B4 |  | 2.72 nM | 38 min |
| B5 |  | 5.44 nM | 55 min |
| B6 |  | 0.0272 nM | > 1160 min |

Target: T2, Peptide A (human PAR-2), N-terminal …
Assay: SPR, peptide immobilized

| Binder | Kd | T1/2 |
| --- | --- | --- |
| B1 | 0.412 nM | 46 min |
| B2 | 0.525 nM | 43 min |
| B3 | 1.69 nM | 48 min |
| B4 | 0.498 nM | 41 min |
| B5 | 1.61 nM | 46 min |
| B6 | 1.05 nM | 189 min |

Each binder was assayed against T6, full length human PAR-2 (human, UniProt P55085 26-397) (assay: cell-based or functional assay).
T6 sequence (P55085 26-397 G138A limits assumed): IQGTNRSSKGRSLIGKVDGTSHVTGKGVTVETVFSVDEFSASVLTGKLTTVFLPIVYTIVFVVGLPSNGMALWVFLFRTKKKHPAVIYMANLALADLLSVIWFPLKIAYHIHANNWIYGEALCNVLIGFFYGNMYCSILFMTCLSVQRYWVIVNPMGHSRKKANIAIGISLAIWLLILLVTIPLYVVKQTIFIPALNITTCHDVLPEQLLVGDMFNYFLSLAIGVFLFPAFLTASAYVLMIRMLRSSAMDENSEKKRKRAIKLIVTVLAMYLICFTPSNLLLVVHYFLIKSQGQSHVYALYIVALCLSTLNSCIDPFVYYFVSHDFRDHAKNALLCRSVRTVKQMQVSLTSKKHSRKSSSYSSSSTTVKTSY

| Binder | IC50, NF-kB-luciferase, 20 nM Trypsin |
| --- | --- |
| B1 | 14 nM |
| B2 | 5.6 nM |
| B3 | 8.9 nM |
| B4 | 1.1 nM |
| B5 | 4.1 nM |
| B6 | 16.9 nM |

These binders were tested against T5, Peptide F (monkey PAR-2), N-terminal … (assay: SPR, antibody captured).
Protocol: (§1) Equilibrium dissociation constants (KD values) for antigen binding to selected purified PAR-2 antibodies were determined by surface kinetics using a real-time surface plasmon resonance biosensor assay. Antibody was captured on either a rabbit anti-mouse IgG polyclonal antibody (GE Healthcare, Piscataway, N.J.) surface or a goat anti-human IgG polyclonal antibody (Jackson Immuno Research Lab, West Grove, Pa.) surface created through direct amine chemical coupling to a BIACORE™ CM5 sensor chip to form a captured antibody surface. […] Antigen-antibody binding and dissociation were monitored in real time at room temperature. Kinetic analysis was performed to calculate KD and half-life of antigen/antibody complex dissociation (Table 10). For those antibodies where no T_{1/2} value is shown, steady state analysis was used to calculate the KD value. NB: no binding observed under current experimental conditions. ND: not determined.

| Binder | Kd | T1/2 |
| --- | --- | --- |
| B1 | 112 nM | 0.47 min |
| B2 | 93.3 nM | 0.23 min |
| B3 | 46.2 nM | 2 min |
| B4 | 36.6 nM | 0.53 min |
| B5 | 49.4 nM | 2 min |
| B6 | 10.8 nM | 20 min |

Each binder was assayed against T6, full length human PAR-2 (assay: MSD cell binding).
Protocol: HEK293 cells were transfected with an NF-κB-luciferase-IRES-eGFP reporter plasmid. […] A clonal cell line, named D9, having low background levels of luciferase activity and high levels of eGFP when induced with IL-1β was made by a series of successive sorts of cell populations using flow cytometry. The 293/D9 cell line was then separately transfected with human PAR-2 or mouse PAR-2 to create the stable cell lines 293/D9/h PAR-2rec and 293/D9/m PAR-2rec, respectively.
Cells were plated on MSD high-bind 96 well plates at a density of 4×10⁴ cells/well in PBS and incubated for one hour at room temperature. Cells were then blocked in PBS with 2% BSA and incubated at room temperature for one hour. Anti-PAR-2 antibodies (ranging from 100 nM to 0.098 nM) were serially diluted two-fold in PBS with 0.5% BSA and incubated with the cells for one hour at room temperature followed by washing in PBS with 0.5% BSA. Sulfo-tagged anti-human IgG antibody (MSD) at a concentration of 0.1 μg/ml was then added to the cell/antibody mixture and incubated at room temperature for an additional hour. After another wash, a 1× non-surfactant containing read buffer was added and electro-chemiluminescent signal was read on the MSD Sector Imager. Signal of antibody binding to 293/D9 cells was subtracted from signal to 293/D9/hPAR-2rec or 293/D9/mPAR-2rec cells. Subtracted data were analyzed using a sigmoidal dose-response model in GraphPad Prism and EC₅₀ and Bₘₐₓ values were reported (Table 18). EC₅₀ values are defined as the antibody concentration required to achieve 50% maximal binding (Bₘₐₓ) to cells.

| Binder | Bmax | EC50 |
| --- | --- | --- |
| B1 | 13300 MSD Unit | 2.12 nM |
| B2 | 26000 MSD Unit | 1.45 nM |
| B3 | 22500 MSD Unit | 1.95 nM |
| B4 | 28200 MSD Unit | 0.652 nM |
| B5 | 25000 MSD Unit | 1.86 nM |
| B6 | 27500 MSD Unit | 5.95 nM |

These binders were tested against T7, Peptide A (human PAR-2), C-terminal biotinylated (Human, C-terminal biotin via G4S linker) (assay: SPR, peptide immobilized).
T7 construct: also called Peptide A C-Term
How it was run: (§2)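 Neutravidin was amine-coupled to a C1 or CM5 chip, and N- or C-terminal biotinylated peptide was captured at low density (<1RU). Purified antibody at 5–100 μg/ml was injected at 50 μl/min for 300 s, with binding and dissociation monitored in real time at 25° C. KD was derived from surface kinetics.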

| Binder | Kd | T1/2 |
| --- | --- | --- |
| B1 | 0.898 nM | 34 min |
| B2 | 0.688 nM | 55 min |
| B3 | 0.151 nM | 493 min |
| B4 | 0.237 nM | 134 min |
| B5 | 0.143 nM | 479 min |
| B6 | 0.517 nM | 141 min |

Target: T3, Peptide B (human PAR-2), C-terminal …
Assay: SPR, peptide immobilized
How it was run: as §2

| Binder | binding result | Kd | T1/2 |
| --- | --- | --- | --- |
| B1 | no binding |  |  |
| B2 |  | 1.66 nM | 15 min |
| B3 |  | 0.376 nM | 123 min |
| B4 |  | 0.346 nM | 49 min |
| B5 |  | 0.453 nM | 96 min |
| B6 |  | 1.03 nM | 70 min |

Target: T4, Peptide A (human PAR-2), unbiotinylated
Assay: SPR, antibody captured
Protocol: as §1

| Binder | Kd | T1/2 |
| --- | --- | --- |
| B1 | 37.1 nM | 0.37 min |
| B2 | 22 nM | 0.73 min |
| B3 | 8.78 nM | 3.7 min |
| B4 | 9.44 nM | 1.4 min |
| B5 | 15 nM | 4.1 min |
| B6 | 4.95 nM | 25.1 min |

These binders were tested against T5, Peptide F (monkey PAR-2), N-terminal … (assay: peptide ELISA titration).
Protocol: (§3) Anti-PAR-2 antibodies were tested for their ability to bind to the PAR-2 peptides. Various PAR-2 Peptides (Table 3) were coated onto 96-well plates at a concentration of 2 μg/ml and incubated overnight followed by blocking in a suitable blocking agent for one hour. […] Purified anti-PAR-2 antibodies were added to the plate coated with PAR-2 peptides to a final concentration ranging from 0.2 to 2.0 μg/ml and incubated for one hour at room temperature. Detection of bound antibodies was determined with Horse-Radish Peroxidase (HRP) conjugated anti-mouse or human IgG (Jackson Immuno Research Lab, West Grove, Pa.) and developed by standard colorimetric response using tetramethylbenzidine (TMB) substrate. Absorbance was read at OD₄₅₀ for 0.1 second.
(§4) In another experiment, selected anti-PAR-2 antibodies cloned onto human IgG4 were tested for binding to unbiotinylated and biotinylated forms of PAR-2 peptides (Peptides A, E, F and G; as described above). […] Absorbance values at 450 nm were analyzed using a sigmoidal dose-response model in GraphPad Prism (GraphPad Software, Inc., La Jolla, Calif.) and EC₅₀ values were reported (Table 9). EC₅₀ values are defined as the antibody concentration required to achieve 50% maximal binding to PAR-2 peptide.

| Binder | EC50 |
| --- | --- |
| B1 | 0.013 nM |
| B2 | 0.012 nM |
| B3 | 0.017 nM |
| B4 | 0.02 nM |
| B5 | 0.061 nM |
| B6 | 0.012 nM |

What follows are binders tested against T7, Peptide A (human PAR-2), C-terminal … (assay: peptide ELISA titration).
Protocol: as §3, §4

| Binder | EC50 |
| --- | --- |
| B1 | 0.018 nM |
| B2 | 0.015 nM |
| B3 | 0.021 nM |
| B4 | 0.028 nM |
| B5 | 0.076 nM |
| B6 | 0.016 nM |

Target: T4, Peptide A (human PAR-2), unbiotinylated
Assay: peptide ELISA titration
Protocol: as §3, §4

| Binder | EC50 |
| --- | --- |
| B1 | 0.008 nM |
| B2 | 0.012 nM |
| B3 | 0.017 nM |
| B4 | 0.012 nM |
| B5 | 0.038 nM |
| B6 | 0.01 nM |

Target: T2, Peptide A (human PAR-2), N-terminal …
Assay: peptide ELISA titration
Protocol: as §3, §4

| Binder | EC50 |
| --- | --- |
| B1 | 0.015 nM |
| B2 | 0.019 nM |
| B3 | 0.026 nM |
| B4 | 0.02 nM |
| B5 | 0.077 nM |
| B6 | 0.019 nM |

From patent US20110059095A1 (Regeneron, published 2011)
